# Data reported in patent US7166568B1, “Compositions and methods to inhibit formation of the C5b-9 complex of complement” (Oklahoma Medical Research Foundation, priority 1998, dated 2007).
# Changes are numbered by the printed parent chain. “Also recorded” adds a separate entry of the source. Non-standard residues stand in square brackets, D forms with d. No end group written: not given here. allyl‑C = allyl-modified terminal Cys; allyl‑K = allyl-modified terminal Lys
# T1: human erythrocyte membrane glycoprotein CD59 (purified) (human, UniProt P13987 26-102, biotinylated with NHS-LC-biotin where used as biotin-CD59)
# T1 construct: Purified from human erythrocyte membranes; Used as biotin-CD59 in the microplate assay and put back into chicken erythrocytes (chE) for the hemolytic assays; it may hold a C-terminal GPI signal that the purified protein lacks; also called hu CD59; biotin-CD59
# T1 sequence: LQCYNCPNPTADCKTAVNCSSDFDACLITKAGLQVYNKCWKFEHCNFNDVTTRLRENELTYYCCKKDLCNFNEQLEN
# T2: hu CD59 (Homo sapiens, UniProt P13987)
# T2 construct: human erythrocyte membrane glycoprotein CD59 were purified; from tissue; host or cells: human erythrocyte membranes
# T2 sequence (P13987 26-102): T1 sequence
# B1: rb CD59: rabbit CD59 cloned by the applicant (GenBank AF040387), expressed recombinantly with TAG on SV-T2 cells (protein)
# chain: EQKLISEEDLNSLMCYHCLLPSPNCSTVTNCTPNHDACLTAVSGPRVYRQCWRYEDCNFEFISNRLEENSLKYNCCRKDLCNGPEDDG
# B2: hu CD59: Human CD59 antigen, 18–21 kDa plasma membrane protein, inhibitor of the C5b-9 membrane attack complex; expressed recombinantly with TAG (protein, UniProt P13987 26-102, looked up)
# CD59 glycoprotein: T1 sequence
# modifications: TAG epitope tag
# B3: BSA-conjugated hu C9 peptide 359-384 (peptide)
# peptide: [allyl‑K]CLGYHLDVSLAFSEISVGAEFNKDD[allyl‑C]
# modifications: also: coupled to BSA
# notes: Synthetic peptide, custom ordered, adsorbed to microplates as a BSA conjugate; also called BSA-peptide conjugate
# B4: Ch6: hu CD59 residues 42–58 substituted into rb CD59 (protein)
# chain: B1 chain with Y54F, D56H, E60N, F61D, I62V, S63T, N64T, E67R, S70E
# B5: Ch6R: rabbit 42–58 substituted in hu CD59 (protein)
# chain: EQKLISEEDLNLQCYNCPNPTADCKTAVNCSSDFDACLITKAGLQVYNKCWKYEDCNFEFISNRLEENSLTYYCCKKDLCNFNEQLEN
# Test system: chE containing membrane C5b-8
# Assay: Hemolytic titration of recombinant C9 constructs against chE containing membrane C5b-8
# Format: cell-based, chicken
# Conditions: not given
# Procedure: Analysis of the inhibitory function of CD 59 towards recombinant C9 constructs—Hemolytic activity of each C9 construct was assayed using as target cells chE that were reconstituted with purified hu CD59, as described by Husler, et al., (1995). chE were washed extensively and suspended in GVBS, and the membrane C5b67 complex assembled by mixing cells (1.4×10^9/ml) with C5b6 (13 μg/ml) followed by addition of C7 (1 μg/ml). After 10 min., the C5b67 chE were diluted to 1.4×10^8/ml in GVBE and incubated (10 min. 37° C.) with 0 or 750 ng/ml CD59. In each case, the final concentration of Nonidet P-40 was less than 0.002% (v/v). After washing in ice-cold GVBE, 2.8×10^8 of these cells were incubated (37° C.) in a total volume of 100 μl with 1 ng rb C8 plus, between zero and 50 ng of recombinant C9, serially diluted in Opti-MEM I. Hemolysis was determined after 30 minutes at 37° C., with correction for nonspecific lysis, determined in the absence of C9. In each experiment, the inhibitory activity of CD59 towards each recombinant C9 construct was determined from the reduction in complement lysis of those cells reconstituted with CD59, versus the identically-treated cells omitting CD59, measured at the midpoint of the C9 titration (i.e., 50% hemolysis). […]
row,Molecule,hemolytic activity of the C9 construct
1,Mutant hu C9: recombinant hu C9 expressed with Ala substitutions at Cys359 and Cys384,did not significantly affect

# Molecular target: T3, C5b-9 assembled from rb C8 and C9 (Oryctolagus cuniculus, UniProt P48747+P98136)
# T3 construct: rabbit complement proteins C8 and C9 were purified; from tissue; host or cells: rabbit serum/plasma (C8, C9); C8-depleted human serum (C5b67)
# Assay: Assay of MAC inhibitory function of recombinant CD59 on transfected SV-T2 cells, rb C8 and C9
# Format: cell-based, rabbit
# Conditions: CD59 construct expressed on SV-T2 cells; hu C5b67, 4 μM rb C8 and 5 μM rb C9; BCECF dye release
# Procedure: Expression of CD59 constructs in SV-T2 cells—SV-T2 cells were transfected with hu, rb, or chimeric TAG-CD59 pcDNA3 by electroporation as previously described (Zhou, Q., Zhao, J., Hüsler, T., and Sims, P. J. (1996) Mol. Immunol. 33, 1127–1134). After 48 hr, stable transfectants were selected with DMEM complete medium containing 1 mg/ml geneticin for 10 days. If episomal replication in the transfected cells was desired, 8×10^6 SV-T2 cells were transfected with 120 μg plasmid DNA by electroporation using GENE PULSE™ (Bio-rad) at 360 V and 500 μF (Zhou, Q., Zhao, J., Hüsler, T., and Sims, P. J. (1996) Mol. Immunol. 33, 1127–1134). Geneticin-selected cells were stained with mAb 9E10 against TAG epitope followed by FITC-conjugated goat antibody against mouse IgG, and sorted by flow cytometry (FACStar Plus; Becton Dickinson). Individual clones were then obtained by limiting dilution in DMEM containing 0.5 mg/ml geneticin. […]
# Measurement of cell surface TAG-CD59—The cell surface expression of each TAG-CD59 construct in transfected SV-T2 cells was quantified by the binding at saturation of mAb 9E10 (against TAG epitope) as previously described by Zhou, Q., Zhao, J., Hüsler, T., and Sims, P. J. (1996) Mol. Immunol. […] The fluorescence was determined by flow cytometry (FACScan, Becton Dickinson) as described previously by Zhou, Q., Zhao, J., Hüsler, T., and Sims, P. J. (1996) Mol. Immunol. […]
row,Molecule,MAC-inhibitory function towards C5b-9 assembled with rb C8 and C9 (protection from lysis)
1,B1,conferred a selective resistance to lysis by C5b-9 assembled from rb C8 and C9
2,B2,protective effect of hu CD59 was not observed

# Molecular target: T1, human erythrocyte membrane glycoprotein …
# Assay: microplate assay: BSA-peptide coated wells, biotin-CD59 detected with Vectastain, OD 405 nm; corrected with a 20-fold excess of unlabeled CD59
# Conditions: not given
# Procedure: Briefly, the BSA-peptide conjugate was adsorbed to 96 well polyvinyl microplates by overnight coating at 5 µg/ml in 0.1 M sodium bicarbonate, pH 8.5. After blocking with 1% (w/v) BSA, wells were washed and incubated (4 hrs., 37° C.) with between 0.5 and 1 µg/ml biotin-CD59. After washing, the bound biotin-CD59 was detected with Vectastain (Vector Labs, Burlingame, Calif.), developed by addition of p-nitrophenyl phosphate (2 mg/ml) and optical density recorded at 405 nm (VMaxMicroplate Reader, Molecular Devices, Inc.). In all experiments, correction was made for background adsorption of biotin-CD59 to BSA-coated wells (no peptide) and for nonspecific binding of biotin-CD59 to peptide, determined in the presence of a 20-fold excess of unlabeled CD59. As a positive control for specific binding, comparison was made in each experiment to wells coated with 2 µg/ml hu C9.
row,Molecule,binding result
1,B3,binds

# Molecular target: T4, hu C5b-9 (hu C5b67 with hu C8 and hu C9) (Homo sapiens, UniProt P02748+P07357)
# T4 construct: human complement proteins (C5b7, C8 and C9) and rabbit complement proteins C8 and C9 were purified; from tissue; host or cells: human serum/plasma (C8 and C9 purified; C5b67 deposited from C8-depleted human serum)
# Assay: Assay of MAC inhibitory function of recombinant CD59 on transfected SV-T2 cells, hu C8 and C9
# Format: cell-based
# Conditions: CD59 construct expressed on SV-T2 cells; hu C5b67, 2 μM hu C8 and 5 μM hu C9; BCECF dye release
# Procedure: Expression of CD59 constructs in SV-T2 cells—SV-T2 cells were transfected with hu, rb, or chimeric TAG-CD59 pcDNA3 by electroporation as previously described (Zhou, Q., Zhao, J., Hüsler, T., and Sims, P. J. (1996) Mol. Immunol. 33, 1127–1134). After 48 hr, stable transfectants were selected with DMEM complete medium containing 1 mg/ml geneticin for 10 days. If episomal replication in the transfected cells was desired, 8×10^6 SV-T2 cells were transfected with 120 μg plasmid DNA by electroporation using GENE PULSE™ (Bio-rad) at 360 V and 500 μF (Zhou, Q., Zhao, J., Hüsler, T., and Sims, P. J. (1996) Mol. Immunol. 33, 1127–1134). Geneticin-selected cells were stained with mAb 9E10 against TAG epitope followed by FITC-conjugated goat antibody against mouse IgG, and sorted by flow cytometry (FACStar Plus; Becton Dickinson). Individual clones were then obtained by limiting dilution in DMEM containing 0.5 mg/ml geneticin. Comparison was made to clonal cell lines derived by transfection with pcDNA3, lacking insert (vector-only controls).
# Measurement of cell surface TAG-CD59—The cell surface expression of each TAG-CD59 construct in transfected SV-T2 cells was quantified by the binding at saturation of mAb 9E10 (against TAG epitope) as previously described by Zhou, Q., Zhao, J., Hüsler, T., and Sims, P. J. (1996) Mol. Immunol. 33, 1127–1134. Following growth to near confluence, cells were detached and incubated for 30 min at 23° C. with mAb 9E10 (100 μg/ml) in HBSS containing 1% BSA. After washing with HBSS containing 1% BSA, the cells were incubated (20 min at 23° C.) with FITC conjugated goat anti-mouse IgG at a final concentration of 10 μg/ml. The fluorescence was determined by flow cytometry (FACScan, Becton Dickinson) as described previously by Zhou, Q., Zhao, J., Hüsler, T., and Sims, P. J. (1996) Mol. Immunol. 33, 1127–1134.
# Assay of MAC inhibitory function—The complement-inhibitory activity of recombinant CD59 expressed on the transfected SV-T2 cells was evaluated by minor modification of methods previously described (Zhou, Q., Zhao, J., Hüsler, T., and Sims, P. J. (1996) Mol. Immunol. 33, 1127–1134, and Zhao, J., Rollins, S. A., Maher, S. E., Bothwell, A. L., and Sims, P. J. (1991) J. Biol. Chem. 266, 13418–13422). For cell clones expressing each chimeric CD59 construct, huC5b67 was deposited on the plasma membrane and susceptibility to the lytic activity of either hu C8 and C9 or rb C8 and C9 was measured and compared to identically-treated clones expressing wild-type hu or rb CD59. […] MAC-mediated cell lysis was determined from the measured release of BCECF dye from the cytoplasm, with correction for non-specific dye leak from matched controls omitting C8 and C9, as previously described by Zhou, Q., Zhao, J., Hüsler, T., and Sims, P. J. (1996) Mol. Immunol. […]
row,Molecule,MAC-inhibitory function towards hu C5b-9 (protection from lysis)
1,B1,virtually no inhibition of the lytic action of MAC was observed
2,B2,nearly completely protected from lysis by hu C5b-9

# Same assay, conditions: SV-T2 clones; hu versus rb C8 and C9 used to assemble the C5b-9 complex
row,Molecule,species-selective complement inhibitory function compared with full-length hu or rb CD59
1,B4,functionally indistinguishable from native hu CD59
2,B5,functionally indistinguishable from rb CD59

# Molecular target: T2, hu CD59
# Assay: Inhibitory function of CD59 towards recombinant C9 constructs (hemolysis of C5b-8 chE with or without membrane CD59)
# Format: cell-based
# Conditions: chE with hu C5b67 and rb C8, 0 or 750 ng/ml CD59; compared with hu C9 and rb C9
# Procedure: Analysis of the inhibitory function of CD 59 towards recombinant C9 constructs—Hemolytic activity of each C9 construct was assayed using as target cells chE that were reconstituted with purified hu CD59, as described by Husler, et al., (1995). chE were washed extensively and suspended in GVBS, and the membrane C5b67 complex assembled by mixing cells (1.4×10^9/ml) with C5b6 (13 μg/ml) followed by addition of C7 (1 μg/ml). After 10 min., the C5b67 chE were diluted to 1.4×10^8/ml in GVBE and incubated (10 min. 37° C.) with 0 or 750 ng/ml CD59. In each case, the final concentration of Nonidet P-40 was less than 0.002% (v/v). After washing in ice-cold GVBE, 2.8×10^8 of these cells were incubated (37° C.) in a total volume of 100 μl with 1 ng rb C8 plus, between zero and 50 ng of recombinant C9, serially diluted in Opti-MEM I. Hemolysis was determined after 30 minutes at 37° C., with correction for nonspecific lysis, determined in the absence of C9. In each experiment, the inhibitory activity of CD59 towards each recombinant C9 construct was determined from the reduction in complement lysis of those cells reconstituted with CD59, versus the identically-treated cells omitting CD59, measured at the midpoint of the C9 titration (i.e., 50% hemolysis). In order to directly compare results obtained in experiments performed on different days, data for each recombinant C9 construct were normalized to results obtained in each experiment with hu C9.
row,Molecule,sensitivity of the C9 construct to inhibition of MAC lytic activity by membrane CD59
1,chimera #6: hu/rb C9 chimera R1-400H392–415R425–536,failed to confer any recognition by CD59
2,chimera #5: hu/rb C9 chimera R1-363H359–391R401–536,conferred full recognition by CD59
3,chimera #2: hu/rb C9 chimera R1-363H359–538,unaffected
4,chimera #4: hu/rb C9 chimera R1-363H359–415R425–536,indistinguishable from hu C9
5,chimera #1: hu/rb C9 chimera R1-338H334–415R425–536,indistinguishable from hu C9 in its sensitivity to inhibition by CD59
6,chimera #3: hu/rb C9 chimera H1-357R363–536,indistinguishable from rb C9 and only weakly inhibited by CD59
7,chimera #12: hu/rb C9 chimera H1-357R363–393H385–538,did not significantly diminish CD59's capacity to inhibit the lytic activity of C9
8,Mutant hu C9: recombinant hu C9 expressed with Ala substitutions at Cys359 and Cys384,did not significantly affect
9,chimera #7: hu/rb C9 chimera R1-363H359–384R394–536,small but significant reduction in inhibition of MAC lytic activity by CD59
10,chimera #8: hu/rb C9 chimera H1-333R339–424H416–538,indistinguishable from rb C9 and virtually unaffected by the presence of membrane CD59; also recorded: completely eliminated hu-selective interaction with CD59
11,chimera #9: hu/rb C9 chimera H1-357R363–424H416–538,did not completely eliminate interaction with CD59
